Results as given in US20220235344A1, “TRYPSIN VARIANTS WITH IMPROVED ENZYMATIC PROPERTIES” (BIOPHARMA TRANSLATIONSINSTITUT DESSAU FORSCHUNGS GMBH, priority 2018, published 2022).
Values joined by “and” are separate entries in the source; they are usually repeats but may differ in a detail not shown here. Identical values can stand only once.

T1: Bz-AAYRAHAG-OH (acyl donor) / H-RAHAK(DNP)-OH (acyl acceptor) (Rattus norvegicus, UniProt P00763, D194K/K66E/Y45H/Y65H)
T1 construct: monomeric enzyme species (about 24 kDa); made in house; host or cells: Pichia pastoris X-33 (pPICZalphaA, secreted)
T1 sequence (P00763 24-246 Y45H/Y65H/K66E/D194K): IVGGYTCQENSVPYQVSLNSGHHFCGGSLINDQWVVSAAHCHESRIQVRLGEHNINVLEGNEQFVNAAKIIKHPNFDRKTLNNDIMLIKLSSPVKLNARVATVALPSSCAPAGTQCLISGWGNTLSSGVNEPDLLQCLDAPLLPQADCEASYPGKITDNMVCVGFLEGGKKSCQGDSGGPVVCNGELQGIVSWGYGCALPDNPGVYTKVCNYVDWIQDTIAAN

T2: H-RAHAK(DNP)-OH (acyl acceptor), acyl donor Bz-PGGYRAHAG-OH (Rattus norvegicus, UniProt P00763, D194K/K66E/Y45H/Y65H)
T2 construct: made in house; host or cells: Pichia pastoris X-33
T2 sequence (P00763 24-246 Y45H/Y65H/K66E/D194K): T1 sequence (P00763 24-246 Y45H/Y65H/K66E/D194K)

B1: A2C8: Trypsiligase II + H40F, A55A, R96E, K97D, L99F, N143E, E151Y, S190V, Q192A, S214G, G219Q, A221T (protein)
chain: IVGGYTCQENSVPYQVSLNSGHFFCGGSLINDQWVVSAAHCHESRIQVRLGEHNINVLEGNEQFVNAAKIIKHPNFDEDTFNNDIMLIKLSSPVKLNARVATVALPSSCAPAGTQCLISGWGETLSSGVNYPDLLQCLDAPLLPQADCEASYPGKITDNMVCVGFLEGGKKVCAGDSGGPVVCNGELQGIVGWGYQCTLPDNPGVYTKVCNYVDWIQDTIAAN
B2: Trypsiligase II (trypsin variant Y39H/Y59H/K60E/D189K) (protein)
chain: T1 sequence (P00763 24-246 Y45H/Y65H/K66E/D194K)

Tests used:
Assay type in all cases: biochemical
[1] = tested on: R1-YRKK-R2 (Bz-PGGYRKKAG-OH) / H-RKKAK(DNP)-OH; experiment: Zinc dependence of the transamidation reaction, A2C8 and K7F11, YRKK; conditions: 100 μM acyl donor, 200 μM acyl acceptor
Description: (§1) Model transamidation reactions were performed in a solution containing 15 to 250 μM acyl donor, 2 eq. of the corresponding acyl acceptor, varying concentrations of trypsin variant, 100 mM HEPES/NaOH pH 7.8, ±0.1 mM ZnC12, 100 mM NaCl, 10 mM CaCl2) at 30° C. Acyl donor and acyl acceptor had the same amino acids in P1′-P3′ position, e.g. Bz-[…]+H-RAHAK-OH or Bz-[…]+H-RKKAK-OH. Variations are indicated. The acyl acceptor could be equipped with a 2,4-Dinitrophenyl group (DNP) at the side chain of the terminal lysine, e.g. H-RAHAK(DNP)-OH or H-RKKAK(DNP)-OH. The reactions were started by the addition of enzyme. To record the time course of product formation and/or for kinetic evaluation of the reaction several aliquots of the reaction mixture were quenched with 25% (v/v) acetic acid at distinct time points within up to 4 hours. The composition of the reaction mixture was analyzed by UPCL with method I or II, depending on the absence (method 1) or presence (method II) of a 2,4-dinitrophenyl group within the acyl acceptor (see example 1). Measurements were performed as duplicates and errors were less than 5%.

[2] = tested on: Bz-PGGXaaXaaXaaXaaAG-OH (acyl donor) / H-XaaXaaXaaAK(DNP)-OH (acyl acceptor); experiment: Substrate specificity of variants (FIG. 2, FIG. 4)
Description: FIG. 2: Substrate specificity data of chosen variants identified during phage-display selection and screening out of Trypsiligase II-library. 100 μM acyl donor (Bz-PGGXaaXaaXaaXaaAG-OH); 200 μM acyl acceptor (H-XaaXaaXaaAK(DNP)-OH); 1-5 μM enzyme variant; 100 mM HEPES pH7.8, 100 mM NaCl, 10 mM CaCl2, 0.1 mM ZnCl2, T=30° C. UPLC analysis: Waters Acquity Ultra Performance LC, C18-column, gradient 5-60% acetonitrile, 5 min, detection at 360 nm; (k_(cat,AL)^app): apparent turnover rate for the aminolysis reaction. Amino acid variation of acyl donor/acyl acceptor pairs at Xaa-positions are indicated at the y-axis, e.g. YRAH relates to the acyl donor Bz-[…]-OH with the corresponding acyl acceptor H-RAHAK(DNP)-OH.
FIG. 4: Substrate specificity data of chosen variants identified during phage-display selection and screening out of Trypsiligase II-library. […]
Model transamidation reactions were performed in a solution containing 15 to 250 μM acyl donor, 2 eq. of the corresponding acyl acceptor, varying concentrations of trypsin variant, 100 mM HEPES/NaOH pH 7.8, ±0.1 mM ZnC12, 100 mM NaCl, 10 mM CaCl2) at 30° C. […] The composition of the reaction mixture was analyzed by UPCL with method I or II, depending on the absence (method 1) or presence (method II) of a 2,4-dinitrophenyl group within the acyl acceptor (see example 1). […]

[3] = target: T1, Bz-AAYRAHAG-OH (acyl donor) / H-RAHAK(DNP)-OH (acyl acceptor); experiment: Zinc dependence of the transamidation reaction, Trypsiligase II
Description: as §1

[4] = target: T2, H-RAHAK(DNP)-OH (acyl acceptor), acyl donor Bz-PGGYRAHAG-OH; experiment: KM value of the nucleophilic peptide (acyl acceptor); conditions: Zinc ions (100 μM): yes; 250 μM Bz-PGGYRAHAG-OH, varying H-RAHAK(DNP)-OH
Description: For Trypsiligase II the measurements for KM values of the nucleophilic peptide (acyl acceptor) were carried out in the presence or absence of zinc ions due to its strong zinc ion dependency. In case of variant A2C8 measurements were carried out in the absence of zinc ions.
Transamidation reactions with Trypsiligase II and variant A2C8 were performed in a solution containing 250 μM of the acyl donor Bz-[…]-OH, varying concentrations of the acyl acceptor H-RAHAK(DNP)-OH (0-5000 μM for Trypsiligase II in the absence of zinc ions, 0-1500 μM for Trypsiligase II in the presence of zinc ions, 0-1000 μM for variant A2C8), 0.2-1.5 μM trypsin variant, 100 mM HEPES/NaOH pH 7.8, ±0.1 mM ZnCl2, 100 mM NaCl, 10 mM CaCl2 at 30° C. The reaction was started by the addition of enzyme. For kinetic evaluation of the reaction several aliquots of the reaction mixture were quenched with 25% (v/v) acetic acid at distinct time points within 30 minutes. The composition of the reaction mixture was analyzed by UPCL using method II (see example 1). UV absorption of the 2,4-Dinitrophenyl group (DNP), which is present in the acyl acceptor as well as in the aminolysis product, was detected at 360 nm. To determine the KM value of the nucleophilic peptide the initial rates for the aminolysis reaction were plotted against the corresponding acyl acceptor concentration and fitted to the Michaelis Menten equation. Measurements were performed as duplicates and errors were less than 5%.

[5] = R1-YRAH-R2, 250 μM acyl donor, 500 μM acyl acceptor, absence of zinc ions

Molecule | kcat, AL^app + Zn^2+ (mkat/mol) ([1]; 0.1 mM ZnCl2) | product yield + Zn^2+ (%) ([1]; 0.1 mM ZnCl2) | kcat, AL^app − Zn^2+ (mkat/mol) ([1]; absence of zinc ions) | product yield − Zn^2+ (%) ([1]; absence of zinc ions) | acceptance of LRKH as acyl donor [2] | substrate sequence with highest activity [2] | dependence for zinc ions [3] | reduction of the product yield in the absence of zinc ions (factor) [3] | kcat, AL^app + Zn^2+ (mkat/mol) ([3]; R1-YRAH-R2, 250 μM acyl donor, 500 μM H-RAHAK(DNP)-OH, 2 μM trypsin variant, 0.1 mM ZnCl2) | product yield + Zn^2+ (%) ([3]; R1-YRAH-R2, 250 μM acyl donor, 500 μM acyl acceptor, 0.1 mM ZnCl2) | kcat, AL^app − Zn^2+ (mkat/mol) [3, 5] [mkat/mol] | product yield − Zn^2+ (%) [3, 5] | drop of apparent turnover rate for the aminolysis reaction in the absence of zinc ions (factor) ([3]; YRAH) | Km [4]
B1 | 18.04 | 59.0 | 17.7 | 59.7 | accepts LRKH as acyl donor | highest activity for YRKK substrate sequence |  |  |  |  |  |  |  | 
B2 |  |  |  |  |  |  | strong dependence for zinc ions | 4 | 11.19 | 18% and 18.1% | 0.89 | 4% and 4.2% | 12 | 143 µM and 144 µM
